Positions count from the first letter of the chain named. Blank lines part the entries; values can stand above or below the binder they belong to.
Key:
[1] = target: T1, recombinant cyno C2a, C-terminal 6His-tag, made in house (CHO cell expression) (cynomolgus monkey, UniProt P06681 244-752 (human entry)); test: ELISA on cyno C2a, OD450nm against log Ab conc. (nmol/L)
T1 chain: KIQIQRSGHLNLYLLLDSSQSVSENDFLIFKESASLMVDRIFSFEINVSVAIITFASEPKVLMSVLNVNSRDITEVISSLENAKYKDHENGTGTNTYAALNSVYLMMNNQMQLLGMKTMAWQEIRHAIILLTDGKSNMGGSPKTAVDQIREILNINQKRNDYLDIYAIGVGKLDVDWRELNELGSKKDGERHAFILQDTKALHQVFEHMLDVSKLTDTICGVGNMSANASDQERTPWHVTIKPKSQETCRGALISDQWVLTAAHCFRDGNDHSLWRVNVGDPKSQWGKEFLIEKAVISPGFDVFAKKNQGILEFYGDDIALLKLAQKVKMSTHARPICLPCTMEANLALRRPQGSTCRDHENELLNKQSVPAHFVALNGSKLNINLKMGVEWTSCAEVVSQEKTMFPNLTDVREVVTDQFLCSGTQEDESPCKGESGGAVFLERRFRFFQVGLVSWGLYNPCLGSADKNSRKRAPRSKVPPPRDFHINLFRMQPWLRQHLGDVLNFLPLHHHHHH

[2] = target: T2, recombinant human C2a, C-terminal 6His-tag, made in house (CHO cell expression) (human, UniProt P06681 244-752); test: ELISA on human C2a, OD450nm against log Ab conc. (nmol/L)
T2 sequence: T1 chain with S18C, V68D, I73M, K84N, Q112R, K117E, Q148H

[3] = target: T3, recombinant human complement C2 (NP_000054.2), C-terminal 6His-tag, made in house (CHO cell expression) (human, UniProt P06681 21-752); test: ELISA
T3 construct: a linker before the tag is not described; also called human C2; Human C2
T3 sequence: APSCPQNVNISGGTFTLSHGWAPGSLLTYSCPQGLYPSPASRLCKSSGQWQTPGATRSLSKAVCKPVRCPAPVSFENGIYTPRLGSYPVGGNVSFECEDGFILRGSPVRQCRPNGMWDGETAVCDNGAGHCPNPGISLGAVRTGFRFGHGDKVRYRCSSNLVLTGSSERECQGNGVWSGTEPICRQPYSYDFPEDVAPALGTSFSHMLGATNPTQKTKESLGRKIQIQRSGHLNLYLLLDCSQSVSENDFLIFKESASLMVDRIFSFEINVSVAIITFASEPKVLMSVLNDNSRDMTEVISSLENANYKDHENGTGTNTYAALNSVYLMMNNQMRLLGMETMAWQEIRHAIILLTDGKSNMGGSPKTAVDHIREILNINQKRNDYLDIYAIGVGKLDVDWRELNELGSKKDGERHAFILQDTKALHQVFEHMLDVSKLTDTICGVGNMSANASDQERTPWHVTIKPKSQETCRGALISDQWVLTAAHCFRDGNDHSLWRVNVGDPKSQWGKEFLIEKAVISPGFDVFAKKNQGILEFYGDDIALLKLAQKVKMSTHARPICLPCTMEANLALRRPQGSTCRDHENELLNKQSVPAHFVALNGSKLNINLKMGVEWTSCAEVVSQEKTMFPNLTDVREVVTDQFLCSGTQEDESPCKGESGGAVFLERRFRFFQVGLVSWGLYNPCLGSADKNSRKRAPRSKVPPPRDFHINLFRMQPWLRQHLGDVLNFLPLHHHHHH

[4] = target: T4, recombinant cynomolgus (cyno) complement C2 (XP_005553508.1), C-terminal 6His-tag, made in house (CHO cell … (cynomolgus monkey (Macaca fascicularis), UniProt P06681 21-752 (human entry))); test: ELISA
T4 construct: also called cyno C2; Cyno C2
T4 chain: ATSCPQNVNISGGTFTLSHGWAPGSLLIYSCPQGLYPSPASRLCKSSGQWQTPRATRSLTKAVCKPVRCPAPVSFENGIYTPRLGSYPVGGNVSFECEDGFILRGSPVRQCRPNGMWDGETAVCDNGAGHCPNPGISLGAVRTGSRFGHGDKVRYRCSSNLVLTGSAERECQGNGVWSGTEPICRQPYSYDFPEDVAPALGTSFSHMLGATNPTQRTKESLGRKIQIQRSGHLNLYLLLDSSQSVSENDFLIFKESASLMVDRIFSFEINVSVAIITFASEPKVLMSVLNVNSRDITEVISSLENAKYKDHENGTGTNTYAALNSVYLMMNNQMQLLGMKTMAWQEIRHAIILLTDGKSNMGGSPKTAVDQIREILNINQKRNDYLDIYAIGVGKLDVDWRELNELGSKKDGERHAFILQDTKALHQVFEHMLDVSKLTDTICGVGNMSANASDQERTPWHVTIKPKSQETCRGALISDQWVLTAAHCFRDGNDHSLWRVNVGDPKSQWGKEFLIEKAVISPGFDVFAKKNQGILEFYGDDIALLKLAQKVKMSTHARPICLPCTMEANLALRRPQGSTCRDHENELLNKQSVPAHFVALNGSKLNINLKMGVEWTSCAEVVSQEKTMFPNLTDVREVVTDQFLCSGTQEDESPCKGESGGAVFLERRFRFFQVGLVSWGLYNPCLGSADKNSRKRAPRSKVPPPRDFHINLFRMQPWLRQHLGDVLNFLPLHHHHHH

[5] = target: T3, recombinant human complement C2 …; test: drawn kinetic table; method and antigen not printed on the sheet, legend paragraph 101 says only anti-C2 antibodies; human C2 taken from the context of Examples 5 and 10
[6] = target: T3, recombinant human complement C2 …; test: kinetic binding measurement, table 'Human C2 binding affinity' with sensorgrams below it (assay not named on the sheet); lot 20211215P05
[7] = target: T3, recombinant human complement C2 …; test: kinetic binding measurement, table 'Human C2 binding affinity' with sensorgrams below it (assay not named on the sheet); lot 20211228P03
[8] = target: T1, recombinant cyno C2a, C-terminal …; test: ELISA
[9] = target: T2, recombinant human C2a, C-terminal …; test: ELISA

B2: anti-C2 antibody 34.5 (antibody, IgG4, V domains shown)
VH: QVQLQESGPGLVKPSQTLSLTCTVSGGSISRGGHQWTWIRQHPGKGLEWIGYIHHSGSTYYNPSLNDRLTILVDTPKNQFSLKLSSVTAADTAVYYCARWNLGSYGDYWGQGTLVTVSS
VL: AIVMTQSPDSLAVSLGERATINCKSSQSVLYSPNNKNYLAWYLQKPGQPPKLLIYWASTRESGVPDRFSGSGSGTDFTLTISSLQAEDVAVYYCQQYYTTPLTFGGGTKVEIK
notes: Recombinant
binding result [1]: no binding (tested: 100 nmol/L) | binding result [2]: no binding (tested: 100 nmol/L) | EC50 [3]: 0.0512 nM | EC50 [4]: 0.0521 nM

B4: 3.2pHGL (3.2 pH construct derived from a human germline framework sequence) (antibody, V domains shown)
VH: EVQLLESGGGLVQPGGSLRLSCAASGFTFRHYAMSWVRQAPGKGLEWVSLISGSGASTHYADSVKGRFTISRDNSKNTLYLQMNSLRAEDTAVYYCAKDSLAVAGSEYFQHWGQGTLVTVSS
VL: SYVLTQPPSVSVAPGQTARITCGHNYFGGKSVHWYQQKPGQAPVLVVYDDSDRPSGIPERFSGSNSGNTATLTISRVEAGDEADYYCQVYDTSSDHWVFGGGTKLTVL
notes: also called germlined 3.2 pH
Kd [5]: 0.138 nM | koff [5]: 4.05e-05 s⁻¹ | kon [5]: 294000 M⁻¹ s⁻¹

B5: 3.2pHGL-IgG1-LALA-LS (3.2 pH-IgG1-LALA-LS derived from germline) (antibody, V domains shown)
VH: B4 VH
VL: SYVLTQPPSVSVAPGQTARITCGHNYFGGKSVHWYQQKPGQAPVLVVYDDSDRPSGIPERFSGSNSGNTATLTISRVEAGDEADYYCQVYDTSSDHWVFGGGTKLTVLG
notes: Heavy chain put together from the named parts
Kd [6]: 0.149 nM | koff [6]: 4.58e-05 s⁻¹ | kon [6]: 309000 M⁻¹ s⁻¹ | Kd [7]: 0.101 nM | koff [7]: 3.33e-05 s⁻¹ | kon [7]: 330000 M⁻¹ s⁻¹

B6: anti-C2 antibody 39.4 (antibody, IgG4, V domains shown)
VH: B4 VH with R19S, A23T, R30S, L50V, H59F, K76E, L101I
VL: SYVLTQAPSVSVAPGQTARITCGGNNIGGKTVHWYQQKPGQAPMLVVYDDSDRPSGIPERFSGSKSGNMAILTISRVEAGDEADYYCQLYDIYSDHWVFGGGTKLTVL
notes: Recombinant
binding result [1]: no binding (tested: 100 nmol/L) | binding result [2]: no binding (tested: 100 nmol/L) | EC50 [3]: 0.0576 nM | EC50 [4]: 0.0869 nM

B9: anti-C2 antibody 139.14 (antibody, IgG4, V domains shown)
VH: QVQLRESGPGLMKPSETLSLTCTVSGGSVSSGVYYWTWIRQPPGKGLEWIGSMFYSGNADYNPSLKSRVTISVDTSKNQFSLRLNSVSAADMAVYYCARGYASGWSYYFDYWGQATLVTVSS
VL: SSELTQDPTVSVALGQTVRITCQGDSLRTYYASWYQQKPGQAPVLVLYGKNNRPSGIPDRFSGSSSGNTASLTITGAQAEDEADYYCNSRYSSGTHVVFGGGTKLTVL
notes: Recombinant
EC50 [8]: 0.208 nM | EC50 [3]: 0.0599 nM | EC50 [4]: 0.115 nM | EC50 [9]: 0.131 nM

Further binders by falling EC50 [3], results first:

EC50 [8]: 0.123 nM | EC50 [3]: 0.054 nM | EC50 [4]: 0.263 nM | EC50 [9]: 0.124 nM
B8: anti-C2 antibody 59.45 (antibody, IgG4, V domains shown)
VH: QLQLQESGPGLVKTSETLSLTCTVSGGSITSGVYYWGWIRQPPGKGLEWIGSIYHGGNTYNNPSLKSRVTIFIDTSKNQFSLKLSSVTAADTAVYYCAEGVSSGWSYYFDYWGQGTLVTVSS
VL: SSELTQDPAVSVALGQTVRITCQGDSLRRFYASWYQQKPGQAPVLVGYGKNNRPSGIPDRFSGSTSGNAASLTITGSQAEDEADYYCNSRDSSGDHLIFGGGTKLTVL
notes: Recombinant

binding result [1]: no binding (tested: 100 nmol/L) | binding result [2]: no binding (tested: 100 nmol/L) | EC50 [3]: 0.0514 nM | EC50 [4]: 0.0682 nM
B7: anti-C2 antibody 48.14 (antibody, IgG4, V domains shown)
VH: B4 VH with T28K, R30S, H31Y, A56Y, H59Y, Y60F, L101I
VL: B4 VL with H24G, N25D, Y26N, F27I, N65D, R76W, Y90W, T92D
notes: Recombinant

binding result [1]: no binding (tested: 100 nmol/L) | binding result [2]: no binding (tested: 100 nmol/L) | EC50 [3]: 0.0479 nM | EC50 [4]: 0.05 nM
B3: anti-C2 antibody 199.1 (antibody, IgG4, V domains shown)
VH: B2 VH with T37S, H42N, G44E, D67N
VL: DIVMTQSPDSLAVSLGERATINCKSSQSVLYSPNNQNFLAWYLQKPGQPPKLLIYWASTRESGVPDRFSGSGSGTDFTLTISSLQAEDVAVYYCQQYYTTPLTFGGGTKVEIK
notes: Recombinant

binding result [1]: no binding (tested: 100 nmol/L) | binding result [2]: no binding (tested: 100 nmol/L) | EC50 [3]: 0.0408 nM | EC50 [4]: 0.0397 nM
B1: anti-C2 antibody 83.16 (antibody, IgG4, V domains shown)
VH: QLQLQESGPGLVKSSETLSLTCTVSGGPISSSSYYWGWIRQPPGKGLEWIGTIYYSGRTYYNPSLKSRGTISVGTSKNQFSLKLSSVTAADTAVFYCAGGVGVTWDYWGQGTLVTVSS
VL: SYDLSQPLSVSVALGQTARITCGGNDIESKNVHWYQQRPGQAPVLVIYRNSNRPSGIPERFSGSNSGNTATLTISRGQGGDEADYYCQVWDSSTVIFGGGTKLTVL
notes: Recombinant

From patent US20250376539A1 (KIRA PHARMACEUTICALS SUZHOU, published 2025)
